Experiments:
[1] = biological target: full-length soluble trimeric gp140 immunogen from the clade C TV1 strain (HIV-1 (clade C, strain TV1)); test: cryo-EM 2D comparison of trimers; 2D comparison of gp140ΔV2TV1 with full length gp140 constructs; trimeric diameters measured
[2] = biological target: full-length soluble trimeric gp140 immunogen from the clade C TV1 strain (HIV-1 (clade C, strain TV1)); test: cryo-EM structure; unliganded gp140 in vitreous ice, 0.1 mg/ml, Tris buffer 20 mM pH 7.9, 50 mM NaCl; single particle reconstruction, ~21 Å at 0.5 FSC
[3] = biological target: gp140 of clade C strain CAP45.2.00.G3 (HIV-1 (clade C, strain CAP45.2.00.G3)); test: cryo-EM 2D comparison of trimers; 2D comparison of gp140ΔV2TV1 with full length gp140 constructs; trimeric diameters measured
[4] = biological target: gp140 of clade C strain CAP239.2.00.G3J (HIV-1 (clade C, strain CAP239.2.00.G3J)); test: as above
[5] = biological target: gp140 of clade C strain Du156.1 (HIV-1 (clade C, strain Du156.1)); test: as above
[6] = biological target: gp140ΔV2TV1, clade C gp140 trimer with a 30-residue truncation in the V2 loop (HIV-1 (clade C, strain TV1)); test: as above

## full-length soluble trimeric gp140 immunogen from the clade C TV1 strain (natural protein)
[1]
  stoichiometry N: 3
[2]
  stoichiometry N: 3

## gp140 of clade C strain CAP45.2.00.G3 (natural protein)
[3]
  stoichiometry N: 3

## gp140 of clade C strain CAP239.2.00.G3J (natural protein)
[4]
  stoichiometry N: 3

## gp140 of clade C strain Du156.1 (natural protein)
[5]
  stoichiometry N: 3

## gp140ΔV2TV1, clade C gp140 trimer with a 30-residue truncation in the V2 loop (natural protein)
[6]
  stoichiometry N: 3

From paper PMC4231788
